Assay results as given in patent US20090280488A1 (NATIONAL UNIVERSITY CORPORATION TOKYO MEDICAL AND DENTAL …, published 2009).

T1: normal ataxin-1 (AT1-30Q) (human, UniProt P54253 1-815)
T1 construct: mature; Polyglutamine tract of 30 glutamines; also called normal AT1; normal polyglutamine protein
T1 sequence (looked up): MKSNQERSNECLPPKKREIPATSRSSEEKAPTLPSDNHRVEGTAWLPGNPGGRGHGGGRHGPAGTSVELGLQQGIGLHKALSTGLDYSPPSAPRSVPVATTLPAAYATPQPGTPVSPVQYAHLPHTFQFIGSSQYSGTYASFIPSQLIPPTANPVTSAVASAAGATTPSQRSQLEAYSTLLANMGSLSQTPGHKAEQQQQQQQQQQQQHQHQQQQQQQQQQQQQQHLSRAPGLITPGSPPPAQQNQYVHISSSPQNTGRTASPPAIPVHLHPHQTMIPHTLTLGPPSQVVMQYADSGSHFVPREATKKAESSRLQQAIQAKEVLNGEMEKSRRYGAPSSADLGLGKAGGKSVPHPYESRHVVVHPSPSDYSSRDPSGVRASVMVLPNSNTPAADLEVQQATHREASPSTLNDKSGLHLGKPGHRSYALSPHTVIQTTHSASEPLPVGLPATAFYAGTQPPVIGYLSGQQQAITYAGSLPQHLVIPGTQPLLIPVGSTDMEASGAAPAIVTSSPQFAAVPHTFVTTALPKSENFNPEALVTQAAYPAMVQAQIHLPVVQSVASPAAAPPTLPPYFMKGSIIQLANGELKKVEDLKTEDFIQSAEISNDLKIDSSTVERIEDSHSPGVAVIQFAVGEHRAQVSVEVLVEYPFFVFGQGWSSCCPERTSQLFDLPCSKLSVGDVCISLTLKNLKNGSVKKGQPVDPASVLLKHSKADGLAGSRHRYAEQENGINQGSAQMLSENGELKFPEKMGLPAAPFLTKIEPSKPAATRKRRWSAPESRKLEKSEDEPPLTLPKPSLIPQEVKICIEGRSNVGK

B1: normal huntingtin (Htt20Q) (other, human, UniProt P42858 1-88, looked up)
chain: MATLEKLMKAFESLKSFQQQQQQQQQQQQQQQQQQQQQPPPPPPPPPPPQLPQPPPQAQPLLPQPQPPPPPPPPPPGPAVAEEPLHRP
notes: domain: exon I; Only exon I of huntingtin, with 20 glutamines; also called normal Htt; normal polyglutamine protein
B2: HMGB1-EGFP protein (rat HMGB1 expressed from pEGFP-N1-HMGB1) (other)
chain: MGKGDPKKPRGKMSSYAFFVQTCREEHKKKHPDASVNFSEFSKKCSERWKTMSAKEKGKFEDMAKADKARYEREMKTYIPPKGETKKKFKDPNAPKRPPSAFFLFCSEYRPKIKGEHPGLSIGDVAKKLGEMWNNTAADDKQPYEKKAAKLKEKYEKDIAAYRAKGKPDAAKKGVVKAEKSKKKKEEEDDEEDEEDEEEEEEEEDEDEEEDDDDE
notes: Expressed in HeLa cells by transfection; precipitated from the lysate with anti-HMGB or anti-EGFP antibody; The order HMGB1 then EGFP follows from the vector pEGFP-N1; HeLa cells also carry endogenous human HMGB1; also called HMGB-EGFP protein; not shown: EGFP and linker encoded by pEGFP-N1 (Clontech)
B3: HMGB2-EGFP protein (rat HMGB2 expressed from pEGFP-N1-HMGB2) (other)
chain: MGKGDPNKPRGKMSSYAFFVQTCREEHKKKHPDSSVNFAEFSKKCSERWKTMSAKEKSKFEDLAKSDKARYDREMKNYVPPKGDKKGKKKDPNAPKRPPSAFFLFCSEHRPKIKSEHPGLSIGDTAKKLGEMWSEQSAKDKQPYEQKAAKLKEKYEKDIAAYRAKGKSEVGKKGPGRPTGSKKKNEPEDEEEEEEEEDDEDEEEEDEDEE
notes: Expressed in HeLa cells by transfection; precipitated from the lysate with anti-HMGB or anti-EGFP antibody; The order HMGB2 then EGFP follows from the vector pEGFP-N1; also called HMGB-EGFP protein; not shown: EGFP and linker encoded by pEGFP-N1 (Clontech)

Tests used:
Assay in all cases: co-immunoprecipitation from HeLa cell lysate with anti-HMGB or anti-EGFP antibody, blot with CAG53b
[1] = target: B2
Procedure: (§1) HeLa cells (1×10⁶) in a 10 cm dish were transfected with pEGFP-N1, pEGFP-N1-HMGB1 or pEGFP-N1-HMGB2 using SuperFect (invitrogen). The cells were also infected with adenoviral vectors (AxCAwt, AxCA-HMGB1, AxCA-HMGB2, AxCA-htt20Q, AxCA-htt111Q, AxCA-AT1-30Q or AxCA-AT1-82Q) in the same manner as described above. Immunoprecipitation was performed according to a known technique (Okazawa, H. et al., Neuron. 34, 701-713. (2002)). Specifically, collected HeLa cells were incubated at 4° C. in TNE buffer (10 mM Tris-HCl (pH7.8), […], 0.15M NaCl, 1 mM EDTA) for 1 hour and were then centrifuged at 17,400×g for 20 min. The supernatant was preincubated with protein G-Sepharose (Amersham Biosciences) at 4° C. for 2 hours and then centrifuged. The supernatant was incubated with anti-HMGB1 antibody (1:600, BD Biosciences), anti-HMGB2 antibody (1:600, BD Biosciences) or anti-GFP antibody (1:600, Clontech) overnight and was subsequently incubated with protein G-Sepharose for 2 hours. The protein G beads were collected by centrifugation (2,000×g) for 5 min and washed 5 times with TNE buffer. The bound proteins were eluted with a sample buffer, separated by SDS-PAGE, and blotted with CAG53b antibody (Scherzinger, E. et al., Cell. 90, 549-558. (1997)).
(§2) A plasmid pEGFP-N-1-HMGB1/2 was transfected into Hela cells and the cells were infected with an adenoviral vector designed to express normal or mutant polyglutamine protein. The cells expressed normal or mutant polyglutamine protein. The expression levels of polyglutamine protein and HMGB-EGFP protein were checked by Western blot using CAG53b antibody and anti-GFP antibody (left panel in FIG. 5). Immunoprecipitation was performed using anti-HMGB or anti-EGFP antibody. […] The pull-down assay using HeLa cells expressing polyglutamine protein indicated interaction between mutant polyglutamine protein and HMGB protein (FIG. 6).

[2] = target: B3
Procedure: as §1, §2

[3] = target: T1, normal ataxin-1 (AT1-30Q)
Procedure: as §1, §2

binding result [1] | binding result [2] | Binder | binding result [3]
no binding | no binding | B1 | –
– | – | B2 | no binding
– | – | B3 | no binding
